This series concerns the molecule itself. The experiment in a line: cryo-EM structure.

As usually defined, the stoichiometry N is a count of units in the complex or per binding partner.

B1: AcrA, periplasmic membrane fusion protein of Escherichia coli (natural protein)
chain: CDDKQAQQGGQQMPAVGVVTVKTEPLQITTELPGRTSAYRIAEVRPQVSGIILKRNFKEGSDIEAGVSLYQIDPATYQATYDSAKGDLAKAQAAANIAQLTVNRYQKLLGTQYISKQEYDQALADAQQANAAVTAAKAAVETARINLAYTKVTSPISGRIGKSNVTEGALVQNGQATALATVQQLDPIYVDVTQSSNDFLRLKQELANGTLKQENGKAKVSLITSDGIKFPQDGTLEFSDVTVDQTTGSITLRAIFPNPDHTLLPGMFVRARLEEGLNPNAILVPQQGVTRTPRGDATVLVVGADDKVETRPIVASQAIGDKWLVTEGLKAGDRVVISGLQKVRPGVQVKAQEVTADNNQQAASGAQPEQSKS
Take B1: the “stoichiometry N” value came to 6 protomers.

Values taken from paper PMC13095208, “Structural mechanisms of pump assembly and drug transport in the AcrAB–TolC efflux system” (eLife, 2026).
